PMC6003227 (Molecular Biology of the Cell, 2018)

Molecular target: T1, MBP-Cdc12(1–765-6A) (S. pombe, UniProt Q10059 1-765, T20A | T22A | S64A | T95A | T151A | S463A)
T1 sequence (looked up): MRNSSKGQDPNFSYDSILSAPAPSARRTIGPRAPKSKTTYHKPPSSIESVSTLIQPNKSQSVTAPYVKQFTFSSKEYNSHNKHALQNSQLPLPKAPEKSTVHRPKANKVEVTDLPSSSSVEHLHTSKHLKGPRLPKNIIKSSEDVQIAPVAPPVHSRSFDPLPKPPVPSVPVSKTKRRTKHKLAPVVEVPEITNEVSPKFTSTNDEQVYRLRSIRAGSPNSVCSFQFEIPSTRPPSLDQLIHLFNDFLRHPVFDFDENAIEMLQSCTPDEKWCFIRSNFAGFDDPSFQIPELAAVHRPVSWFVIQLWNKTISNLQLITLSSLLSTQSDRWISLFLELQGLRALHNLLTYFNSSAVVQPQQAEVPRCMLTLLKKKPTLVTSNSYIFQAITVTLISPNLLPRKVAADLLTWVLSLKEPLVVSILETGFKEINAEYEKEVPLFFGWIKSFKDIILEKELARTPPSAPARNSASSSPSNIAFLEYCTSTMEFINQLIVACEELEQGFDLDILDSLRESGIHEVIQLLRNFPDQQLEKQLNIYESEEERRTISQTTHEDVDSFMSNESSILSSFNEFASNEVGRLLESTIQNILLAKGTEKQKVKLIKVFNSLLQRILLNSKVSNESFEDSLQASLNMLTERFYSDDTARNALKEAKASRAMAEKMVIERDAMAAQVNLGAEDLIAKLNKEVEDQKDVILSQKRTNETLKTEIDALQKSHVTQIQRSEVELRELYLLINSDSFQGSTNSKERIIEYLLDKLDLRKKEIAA
Assay: pull-down

binding result: binds
B1: Cdc15 F-BAR(19–312) (domain or fragment, S. pombe, UniProt Q09822 19-312, looked up)
chain: SVKFRDNFWGSEDAGMDALMSRTKSSLSVLESIDEFYAKRASIEREYASKLQELAASSADIPEVGSTLNNILSMRTETGSMAKAHEEVSQQINTELRNKIREYIDQTEQQKVVAANAIEELYQKKTALEIDLSEKKDAYEYSCNKLNSYMRQTKKMTGRELDKYNLKIRQAALAVKKMDAEYRETNELLLTVTREWIDRWTEVCDAFQHIEEYRLEFLKTNMWAYANIISTACVKDDESCEKIRLTLENTNIDEDITQMIQNEGTGTTIPPLPEFNDYFKENGLNYDIDQLISK
